Assay [1] deals with human recombinant CD64 (Fc gamma receptor I), R&D Systems (human) (UniProt P12314). Nature of the assay: SPR (Biacore T200), construct captured on Protein A, soluble CD64 as analyte.
In assay [2] the target is FcγRIIIaV158 (on cells bearing the labeled receptor, TR-FRET) (UniProt P08637). The experiment in a line: TR-FRET competition (CisBio) on cells bearing the labeled receptor; competitor: labeled antibody.
The target in assay [3] is FcγRIIaH131 (cell surface CD32a, cells bearing the labeled receptor, TR-FRET) (UniProt P12318). The description is as above.
Sequence of FcγRIIaH131 (cell surface CD32a, cells bearing the labeled receptor, TR-FRET) (P12318 34-317): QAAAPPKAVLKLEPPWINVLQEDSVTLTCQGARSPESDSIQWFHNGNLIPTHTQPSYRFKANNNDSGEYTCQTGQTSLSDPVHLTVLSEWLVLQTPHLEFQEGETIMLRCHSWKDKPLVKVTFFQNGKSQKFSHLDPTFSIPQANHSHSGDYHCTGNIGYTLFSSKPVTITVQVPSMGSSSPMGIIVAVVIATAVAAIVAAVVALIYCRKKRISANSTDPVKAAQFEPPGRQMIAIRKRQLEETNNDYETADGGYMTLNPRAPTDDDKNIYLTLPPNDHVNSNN
The target of assay [4] is FcγRIIb (on cells bearing the labeled receptor, TR-FRET) (UniProt P31994). The description is as above.
Sequence of FcγRIIb (on cells bearing the labeled receptor, TR-FRET) (P31994 43-310 limits assumed): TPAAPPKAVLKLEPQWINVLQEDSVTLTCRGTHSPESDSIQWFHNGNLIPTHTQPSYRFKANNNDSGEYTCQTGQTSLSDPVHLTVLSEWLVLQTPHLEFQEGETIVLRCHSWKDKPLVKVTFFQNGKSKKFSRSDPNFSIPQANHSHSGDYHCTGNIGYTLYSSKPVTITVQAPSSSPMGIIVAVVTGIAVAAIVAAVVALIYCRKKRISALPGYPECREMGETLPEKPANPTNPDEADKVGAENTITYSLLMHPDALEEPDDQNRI

CD64 Valency by SPR and IC50 data for 1 substance are collected here from patent publication US20210269546A1.

What is called IC50 is the midpoint of a concentration-inhibition curve.

Sequence of FcγRIIIaV158 (on cells bearing the labeled receptor, TR-FRET) (P08637 17-254 F176V): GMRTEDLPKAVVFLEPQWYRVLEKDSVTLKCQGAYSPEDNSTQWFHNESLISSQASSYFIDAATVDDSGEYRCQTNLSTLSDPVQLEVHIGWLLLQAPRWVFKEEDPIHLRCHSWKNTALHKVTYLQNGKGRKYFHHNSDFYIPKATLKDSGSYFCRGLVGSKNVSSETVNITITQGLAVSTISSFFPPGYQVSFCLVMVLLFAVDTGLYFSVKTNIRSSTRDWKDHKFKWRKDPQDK
Sequence of human recombinant CD64 (Fc gamma receptor I), R&D Systems (human) (P12314 16-288 limits assumed): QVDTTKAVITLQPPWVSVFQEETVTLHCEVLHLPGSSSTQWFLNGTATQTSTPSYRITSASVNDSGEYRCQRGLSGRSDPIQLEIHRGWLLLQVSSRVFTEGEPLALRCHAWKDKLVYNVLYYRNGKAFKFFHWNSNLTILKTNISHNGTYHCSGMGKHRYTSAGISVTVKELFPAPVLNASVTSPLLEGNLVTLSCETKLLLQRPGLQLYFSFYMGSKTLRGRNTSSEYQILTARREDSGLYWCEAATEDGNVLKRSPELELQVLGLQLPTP

On to “anti-CD20 mAb (CDRs from Gazyva (obinutuzumab)) (antibody)”, for which, in assay [1], the CD64 Valency by SPR came out at 1.5. Besides, the IC50 in assay [2] was determined as 428 nM; in assay [3], 1270 nM; in assay [4], 3290 nM.
